Measurements reported in patent US20120316071A1 (published 2012).
One block for each binder: values may come before it.

Assays:
[1] = biological target: T1, Recombinant Human DLL4 (delta-like protein 4) (human, UniProt Q9NR61 27-524); assay: ELISA on coated DLL4, Fab at 25 nM (2-fold serial dilution)
T1 construct: also called rHuman DLL4; Delta-like 4

[2] = biological target: T1, Recombinant Human DLL4 (delta-like …); assay: ELISA on coated DLL4, Fab at 50 nM (2-fold serial dilution)
[3] = biological target: T1, Recombinant Human DLL4 (delta-like …); assay: ELISA on coated DLL4, Fab at 100 nM (2-fold serial dilution)
[4] = biological target: T1, Recombinant Human DLL4 (delta-like …); assay: ELISA on coated DLL4, Fab at 12.5 nM (2-fold serial dilution)
[5] = biological target: T1, Recombinant Human DLL4 (delta-like …); assay: ELISA on coated DLL4, Fab at 6.25 nM (2-fold serial dilution)
[6] = biological target: T1, Recombinant Human DLL4 (delta-like …); assay: ELISA on coated DLL4, Fab at 3.125 nM (2-fold serial dilution)
[7] = biological target: T2, Recombinant Human DLL4 (R&D Systems Cat#1506-D4/CF) (human, UniProt Q9NR61 27-524); assay: ELISA on coated DLL4, 100 nM Fab
T2 construct: Bought recombinant human DLL4; also called delta-like protein 4; rHuman DLL4

[8] = biological target: T2, Recombinant Human DLL4 (R&D Systems …); assay: ECL (MSD) binding assay, immobilised DLL4, 10 nM Fab;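 note: fab binding read as electrochemiluminescence via a TAG-labelled detection antibody, 1 h incubations at 20 °C, antigen signal compared with each well's blank, ratio of at least 4 scored as binder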
[9] = biological target: T3, Recombinant Human DLL4 (delta-like protein 4) (human, UniProt Q9NR61 27-524); assay: ECL (MSD) binding assay, DLL4 immobilised, Fab at 10 nM
T3 construct: also called rHuman DLL4; Delta-like 4

ELISA signal [1]: 0.221 | ELISA signal [2]: 0.245 | ELISA signal [3]: 0.298 | ELISA signal [4]: 0.233 | ELISA signal [5]: 0.278 | ELISA signal [6]: 0.257
B1: Fab VH5-51_IGHD5-18*01>3_IGHJ4*01 G100K/G104T G24L & V3-4_IGLJ1*01 (Fab, V domains shown)
VH: EVQLVQSGAEVKKPGESLKISCKLSGYSFTSYWIGWVRQMPGKGLEWMGIIYPGDSDTRYSPSFQGQVTISADKSISTAYLQWSSLKASDTAMYYCARRKYSYTYDYFDYWGQGTLVTVSS
VL: QTVVTQEPSFSVSPGGTVTLTCGLSSGSVSTSYYPSWYQQTPGQAPRTLIYSTNTRSSGVPDRFSGSILGNKAALTITGAQADDESDYYCVLYMGSGISYVFGTGTKVTVL
notes: Fab; also called H:KT G24L & L:parent

ELISA Signal [100 nM Fab] [7]: 0.02 | ECL Signal [10 nM Fab] [8]: 40000
B2: Fab VH5-51_IGHD5-18*01>3_IGHJ4*01 G100K/G104T (H:KT) & V3-4_IGLJ1*01 S96L (Fab, V domains shown)
VH: EVQLVQSGAEVKKPGESLKISCKGSGYSFTSYWIGWVRQMPGKGLEWMGIIYPGDSDTRYSPSFQGQVTISADKSISTAYLQWSSLKASDTAMYYCARRKYSYTYDYFDYWGQGTLVTVSS
VL: QTVVTQEPSFSVSPGGTVTLTCGLSSGSVSTSYYPSWYQQTPGQAPRTLIYSTNTRSSGVPDRFSGSILGNKAALTITGAQADDESDYYCVLYMGLGISYVFGTGTKVTVL
notes: Fab format: CH1 with His6 and Flag tags, and lambda CL, from the vectors; also called G100K/G104T & S96L

ELISA Signal [100 nM Fab] [7]: 0.03 | ECL Signal [10 nM Fab] [8]: 54000
B3: Fab VH5-51_IGHD5-18*01>3_IGHJ4*01 G100K/G104T (H:KT) & V3-4_IGLJ1*01 S96P (Fab, V domains shown)
VH: EVQLVQSGAEVKKPGESLKISCKGSGYSFTSYWIGWVRQMPGKGLEWMGIIYPGDSDTRYSPSFQGQVTISADKSISTAYLQWSSLKASDTAMYYCARRKYSYTYDYFDYWGQGTLVTVSS
VL: QTVVTQEPSFSVSPGGTVTLTCGLSSGSVSTSYYPSWYQQTPGQAPRTLIYSTNTRSSGVPDRFSGSILGNKAALTITGAQADDESDYYCVLYMGPGISYVFGTGTKVTVL
notes: Tested as a Fab made in E. coli; The heavy chain vector (plasmid A) adds CH1 with His6 and Flag tags; the lambda light chain vector (plasmid E) adds CL; also called G100K/G104T & S96P

Signal [10 nM Fab] [9]: 13200
B4: Fab VH1-46_IGHD6-6*01_IGHJ1*01 S102A/S103P/S104F/H111F & L6_IGKJ1*01 A55T (Fab, V domains shown)
VH: QVQLVQSGAEVKKPGASVKVSCKASGYTFTSYYMHWVRQAPGQGLEWMGIINPSGGSTSYAQKFQGRVTMTRDTSTSTVYMELSSLRSEDTAVYYCAREEYAPFSAEYFQFWGQGTLVTVSS
VL: EIVLTQSPATLSLSPGERATLSCRASQSVSSYLAWYQQKPGQAPRLLIYDASNRTTGIPARFSGSGSGTDFTLTISSLEPEDFAVYYCQQRSNWPPWTFGQGTKVEIKR
notes: also called APFF & L6_IGKJ1*01 A55T

Signal [10 nM Fab] [9]: 7260
B5: Fab VH1-46_IGHD6-6*01_IGHJ1*01 S102A/S103P/S104F/H111F & L6_IGKJ1*01 T56A (Fab, V domains shown)
VH: QVQLVQSGAEVKKPGASVKVSCKASGYTFTSYYMHWVRQAPGQGLEWMGIINPSGGSTSYAQKFQGRVTMTRDTSTSTVYMELSSLRSEDTAVYYCAREEYAPFSAEYFQFWGQGTLVTVSS
VL: EIVLTQSPATLSLSPGERATLSCRASQSVSSYLAWYQQKPGQAPRLLIYDASNRAAGIPARFSGSGSGTDFTLTISSLEPEDFAVYYCQQRSNWPPWTFGQGTKVEIKR
notes: also called APFF & L6_IGKJ1*01 T56A

Signal [10 nM Fab] [9]: 19300
B6: Fab VH1-46_IGHD6-6*01_IGHJ1*01 S102A/S103P/S104F/H111F & L6_IGKJ1*01 S52A (Fab, V domains shown)
VH: QVQLVQSGAEVKKPGASVKVSCKASGYTFTSYYMHWVRQAPGQGLEWMGIINPSGGSTSYAQKFQGRVTMTRDTSTSTVYMELSSLRSEDTAVYYCAREEYAPFSAEYFQFWGQGTLVTVSS
VL: EIVLTQSPATLSLSPGERATLSCRASQSVSSYLAWYQQKPGQAPRLLIYDAANRATGIPARFSGSGSGTDFTLTISSLEPEDFAVYYCQQRSNWPPWTFGQGTKVEIKR
notes: also called APFF & L6_IGKJ1*01 S52A

Signal [10 nM Fab] [9]: 4230
B7: Fab VH1-46_IGHD6-6*01_IGHJ1*01 S102A/S103P/S104F/H111F & L6_IGKJ1*01 D50A (Fab, V domains shown)
VH: QVQLVQSGAEVKKPGASVKVSCKASGYTFTSYYMHWVRQAPGQGLEWMGIINPSGGSTSYAQKFQGRVTMTRDTSTSTVYMELSSLRSEDTAVYYCAREEYAPFSAEYFQFWGQGTLVTVSS
VL: EIVLTQSPATLSLSPGERATLSCRASQSVSSYLAWYQQKPGQAPRLLIYAASNRATGIPARFSGSGSGTDFTLTISSLEPEDFAVYYCQQRSNWPPWTFGQGTKVEIKR
notes: also called APFF & L6_IGKJ1*01 D50A

Signal [10 nM Fab] [9]: 11600
B8: Fab VH1-46_IGHD6-6*01_IGHJ1*01 S102A/S103P/S104F/H111F & L6_IGKJ1*01 R54A (Fab, V domains shown)
VH: QVQLVQSGAEVKKPGASVKVSCKASGYTFTSYYMHWVRQAPGQGLEWMGIINPSGGSTSYAQKFQGRVTMTRDTSTSTVYMELSSLRSEDTAVYYCAREEYAPFSAEYFQFWGQGTLVTVSS
VL: EIVLTQSPATLSLSPGERATLSCRASQSVSSYLAWYQQKPGQAPRLLIYDASNAATGIPARFSGSGSGTDFTLTISSLEPEDFAVYYCQQRSNWPPWTFGQGTKVEIKR
notes: also called APFF & L6_IGKJ1*01 R54A

Signal [10 nM Fab] [9]: 14200
B9: Fab VH1-46_IGHD6-6*01_IGHJ1*01 S102A/S103P/S104F/H111F & L6_IGKJ1*01 N53A (Fab, V domains shown)
VH: QVQLVQSGAEVKKPGASVKVSCKASGYTFTSYYMHWVRQAPGQGLEWMGIINPSGGSTSYAQKFQGRVTMTRDTSTSTVYMELSSLRSEDTAVYYCAREEYAPFSAEYFQFWGQGTLVTVSS
VL: EIVLTQSPATLSLSPGERATLSCRASQSVSSYLAWYQQKPGQAPRLLIYDASARATGIPARFSGSGSGTDFTLTISSLEPEDFAVYYCQQRSNWPPWTFGQGTKVEIKR
notes: also called APFF & L6_IGKJ1*01 N53A
